Results reported in patent US7514069B2, “Tumor-targeted optical contrast agents” (Mallinckrodt Inc., priority 2000, dated 2009).

How the values were obtained:
[1] = Monitoring of the blood clearance profile of peptide-dye conjugates; type: in vivo, Sprague-Dawley or Fischer 344 rats; conditions: bolus injection in lateral tail vein; monitored at 830 nm after excitation at 780 nm
From the text: A laser of appropriate wavelength for excitation of the dye chromophore was directed into one end of a fiber optic bundle and the other end was positioned a few millimeters from the ear of a rat. A second fiber optic bundle was also positioned near the same ear to detect the emitted fluorescent light and the other end was directed into the optics and electronics for data collection. An interference filter (IF) in the collection optics train was used to select emitted fluorescent light of the appropriate wavelength for the dye chromophore.
Sprague-Dawley or Fischer 344 rats were used in these studies. The animals were anesthetized with urethane administered via intraperitoneal injection at a dose of 1.35 g/kg body weight. After the animals had achieved the desired plane of anesthesia, a 21 gauge butterfly with 12″ tubing was placed in the lateral tail vein of each animal and flushed with heparinized saline. The animals were placed onto a heating pad and kept warm throughout the entire study. […]
Incident laser light delivered from the fiber optic was centered on the affixed ear. Data acquisition was then initiated, and a background reading of fluorescence was obtained prior to administration of the test agent. […] The data were analyzed using a standard sigma plot software program for a one compartment model.

[2] = tested on: pancreatic acinar carcinoma expressing the SST-2 receptor (CA20948); assay: In vivo fluorescence imaging of rat pancreatic acinar carcinoma (CA20948); set-up: species or system Lewis rat
From the text: (§1) A non-invasive in vivo fluorescence imaging apparatus was employed to assess the efficacy of contrast agents developed for tumor detection in animal models. A LaserMax Inc. laser diode of nominal wavelength 780 nm and nominal power of 40 mW was used. The detector was a Princeton Instruments model RTE/CCD-1317-K/2 CCD camera with a Rodenstock 10 mm F2 lens (stock #542.032.002.20) attached. An 830 nm interference […] (CVI Laser Corp., part # F10-830-4-2) was mounted in front of the CCD input lens such that only emitted fluorescent light from the contrast agent was imaged. Typically, an image of the animal was taken pre-injection of contrast agent. This image was subsequently subtracted (pixel by pixel) from the post injection images. However, the background subtraction was […] done once the animal had been removed from the sample area and returned at a later time for images taken several hours post injection.
The imaging apparatus and the procedure used are described in Example 12. Rat pancreatic acinar carcinoma expressing the SST-2 receptor (CA20948) was induced by solid implant technique in the left flank area, and palpable masses were detected nine days post implant. The images obtained at 2 and 30 minutes post injection are shown in FIG. 7E-F. FIGS. 7E-F are images of a rat with an induced pancreatic acinar carcinoma (CA20948) expressing the SST-2 receptor imaged at two minutes (FIG. 7E) and 30 minutes (FIG. 7F) post injection.
The imaging apparatus and the procedure used are described in Example 12 except that each animal received 500 μl of a 1.0 mg/mL solution of Cytate 1 solution of 25% dimethylsulfoxide in water.
Rat pancreatic acinar carcinoma expressing the SST-2 receptor (CA20948) were induced by solid implant technique in the left flank area, and palpable masses were detected 24 days post implant. Images were obtained at various times post injection.
Cytate 1 was evaluated in the CA20948 Lewis rat model. […] At 27 hours post injection, the animal was again imaged (FIG. 9B).

[3] = tested on: pancreatic acinar carcinoma (CA20948); assay: Imaging of individual organs removed from CA20948 tumor-bearing rat; type: in vivo; conditions: organs removed about 24 hours post administration
Protocol: Individual organs were removed at about 24 hours post Cytate 1 administration and imaged.

DSL 6A tumors = assay: In vivo fluorescence imaging of pancreatic ductal adenocarcinoma (DSL 6A); set-up: species or system male Lewis rats
From the text: as §1
DSL 6A tumors were induced in male Lewis rats in the left flank area by the introduction of material from a solid (donor) implant and the tumors were palpable in approximately 14 days. The animals were anesthetized with xylazine; ketamine; acepromazine 1.5:1.5:0.5 at 0.8 mL/kg via intramuscular injection. The area of the tumor (left flank) was shaved to expose tumor and surrounding surface area. […]

[4] = tested on: Prostrate tumors (Dunning R3327-H); assay: In vivo fluorescence imaging of prostatic carcinoma (R3327-H); set-up: species or system young male Copenhagen rats
From the text: as §1
The imaging apparatus and the procedure used are described as in Example 12. Prostrate tumors (Dunning R3327-H) were induced in young male Copenhagen rats in the left flank area from a solid implant. These tumors grow very slowly and palpable masses were present 4-5 months post implant. FIGS. 7C-D are images of a rat with an induced prostatic carcinoma tumor (R3327-H) imaged at two minutes (FIG. 7C) and 30 minutes (FIG. 7D) post injection.

[5] = 500 μl of 1.0 mg/mL solution in 25% dimethylsulfoxide in water, CA20948 tumor

With C[C@@H](O)[C@H](NC(=O)[C@@H]1CSSC[C@H](NC(=O)[C@@H](Cc2ccccc2)NC(=O)CCN2C(=CC=CC=CC=CC3=[N+](CCC(=O)O)c4ccc5ccccc5c4C3(C)C)C(C)(C)c3c2ccc2ccccc32)C(=O)N[C@@H](Cc2ccc(O)cc2)C(=O)N[C@H](Cc2c[nH]c3ccccc23)C(=O)N[C@@H](CCCCN)C(=O)N[C@@H]([C@@H](C)O)C(=O)N1)C(=O)O [Cytate 1, monoOctreotate-Bisethylcarboxymethylindocyanine dye] the “fluorescence signal in blood (ear) after bolus injection” value [1] was “rapidly increased to a peak value. The signal then decayed as a function of time”, the “time at which uptake into the tumor was maximal” value [2, 5] was “about five” and the “time at which uptake into the tumor was seen” value [2, 5] was “two”. For the same molecule, the “uptake at 45 minutes in rats with the CA20948 tumor cell line” value ([2]; 45 minutes post injection) was “still quite intense”, the “localization of dye in the tumor” value ([2]; 45 minutes post injection, CA20948 Lewis rat model) was “localization of this dye was observed in the tumor” and the tumor visualization ([2]; 27 hours post injection, CA20948 Lewis rat model) was “Tumor visualization was easily observed”. The “persistence of dye fluorescence in the tumor” value ([2]; CA20948 tumor, post-injection) was “remained intense in the tumor for several hours”, the “organ uptake: adrenals” value [3] was “high uptake” and the “organ uptake: heart” value [3] was “significantly lower uptake”. The “organ uptake: liver” value [3] was “significantly lower uptake”, the “organ uptake: muscle” value [3] was “significantly lower uptake” and the “organ uptake: pancreas” value [3] was “high uptake”. The “organ uptake: spleen” value [3] was “significantly lower uptake” and the “organ uptake: tumor tissue” value [3] was “high uptake”.

With C[C@@H](O)[C@H](NC(=O)[C@@H]1CSSC[C@H](NC(=O)[C@@H](Cc2ccccc2)NC(=O)CCN2C(=CC=CC=CC=CC3=[N+](CCC(=O)N[C@H](Cc4ccccc4)C(=O)N[C@H]4CSSC[C@@H](C(=O)N[C@H](C(=O)O)[C@@H](C)O)NC(=O)[C@H]([C@@H](C)O)NC(=O)[C@H](CCCCN)NC(=O)[C@@H](Cc5c[nH]c6ccccc56)NC(=O)[C@H](Cc5ccc(O)cc5)NC4=O)c4ccc5ccccc5c4C3(C)C)C(C)(C)c3c2ccc2ccccc32)C(=O)N[C@@H](Cc2ccc(O)cc2)C(=O)N[C@H](Cc2c[nH]c3ccccc23)C(=O)N[C@@H](CCCCN)C(=O)N[C@@H]([C@@H](C)O)C(=O)N1)C(=O)O [Cytate 2, bisOctreotate-Bisethylcarboxymethylindocyanine dye] the “fluorescence signal in blood (ear) after bolus injection” value [1] was “rapidly increased to a peak value. The signal then decayed as a function of time”.

In the case of CC1(C)C(/C=C/C=C/C=C/C=C2\N(CCCCS(=O)(=O)O)c3ccc4ccccc4c3C2(C)C)=[N+](CCCCS(=O)(=O)[O-])c2ccc3ccccc3c21 [ICG, indocyanine green], the “dye intensity in the tumor” value (DSL 6A tumors; 30 minutes post-ICG injection, bolus injection of 0.5 ml aqueous solution of ICG, DSL 6A tumor) is reported as “considerably diminished”, the “perfusion of the agent into the tumor” value (DSL 6A tumors; DSL 6/A (pancreatic) tumor line, CCD camera) is reported as “slow perfusion of the agent over time into the tumor” and the “dye intensity in the tumor” value ([2]; 30 minutes post-ICG injection, CA20948 tumor) is reported as “considerably diminished and almost absent”. For the same molecule, the “uptake at 45 minutes in rats with the CA20948 tumor cell line” value ([2]; 45 minutes post injection) was “mostly cleared”, the “perfusion of the agent into the tumor” value ([2]; CA20948 (pancreatic) tumor line, CCD camera) was “only a slight but transient perfusion that was absent after only 30 minutes post injection” and the “dye intensity in the tumor” value ([4]; 30 minutes post-ICG injection, R3327-H tumor) was “considerably diminished”. The “perfusion of the agent into the tumor” value ([4]; Dunning R3327H (prostate) tumor line, CCD camera) was “slow perfusion of the agent over time into the tumor”.
